Results: doi:10.1101/857136, “Structural characterization of an intermediate reveals a unified mechanism for the CLC Cl^−/H^+ transport cycle” (bioRxiv, 2019)

Biological target: the molecule itself
Assay: crystal structure; lipidic cubic phase (monoolein with 10% cholesterol), without any antibody Fab fragment; 16 °C; 100 mM Tris pH 8.5, 100 mM sodium malonate, 30% PEG 400, 2.5% MPD; 2.6 Å

B1: CLC-ec1 QQQ mutant (E148Q/E203Q/E113Q) (natural protein)
chain: MKTDTPSLETPQAARLRRRQLIRQLLERDKTPLAILFMAAVVGTLVGLAAVAFDKGVAWLQNQRMGALVHTADNYPLLLTVAFLCSAVLAMFGYFLVRKYAPEAGGSGIPEIQGALEDQRPVRWWRVLPVKFFGGLGTLGGGMVLGRQGPTVQIGGNIGRMVLDIFRLKGDEARHTLLATGAAAGLAAAFNAPLAGILFIIEQMRPQFRYTLISIKAVFIGVIMSTIMYRIFNHEVALIDVGKLSDAPLNTLWLYLILGIIFGIFGPIFNKWVLGMQDLLHRVHGGNITKWVLMGGAIGGLCGLLGFVAPATSGGGFNLIPIATAGNFSMGMLVFIFVARVITTLLCFSSGAPGGIFAPMLALGTVLGTAFGMVAVELFPQYHLEAGTFAIAGMGALLAASIRAPLTGIILVLEMTDNYQLILPMIITGLGATLLAQFTGGKPLYSAILARTLAKQEAEQLARSK
notes: CLC-ec1, prokaryotic CLC Cl-/H+ exchange transporter, with glutamines in place of Gluex (E148), Gluin (E203) and E113; The final crystallographic model holds all residues except those of helix A (no density); PDB 1ots is the wild-type parent used as search model; also called QQQ protein
- binding result: binds
